Tests used:
[1] = target: T1, human CB1 expressing TRex-CHO cells (Homo sapiens, UniProt P21554); type: cell-based; settings: forskolin stimulated TRex-CHO CB1 cells
T1 construct: pcDNA4/TO native full length human CB1 receptor construct was transfected into tetracycline inducible system Trex-CHO and Trex-293 cells; expressed in transfected cells
Protocol: Data analysis was performed using GraphPad Prism software.
Data analysis was performed using GraphPad Prism.

[2] = tested on: CB1 receptor signaling, WIN55,212 induced ERK phosphorylation in Trex-CHO CB1 receptor cells; test: ERK activation assay (western blot); type: cell-based, human; settings: IgG 300 nM; WIN55,212 100 nM, 10 and 15 minutes
Protocol: Two days before the experiment, Trex-CHO CB1 receptor cells were seeded at 500,000 cells/well into 6-well plates. 1 μg/mL tetracycline was used to induce CB1 receptor expression after 24 hours. Cells were serum starved for at least two hours before the experiment. […] Cell lysates were harvested and the level of ERK activation was determined by western blot. Anti-ERK and Anti-phospho-specific ERK antibodies were obtained from Cell Signaling Inc.
Two days before the experiment, Trex-CHO CB1 receptor-expressing cells were seeded at 500,000 cells/well into 6-well plates. 1 μg/mL tetracycline was used to induce CB1 receptor expression after 24 hours. Cells were serum starved for at least two hours before the experiment. […] Cell lysates were harvested and the level of ERK activation was determined by western blot. Anti-ERK and Anti-phospho-specific ERK antibodies were obtained from Cell Signaling Inc.

[3] = target: T2, CB1 surface expression (CB1 TRex-CHO / TRex-293 cells) (Homo sapiens, UniProt P21554); type: cell-based; settings: tetracycline induced, humanized variants
T2 construct: pcDNA4/TO native full length human CB1 receptor construct was transfected into tetracycline inducible system Trex-CHO and Trex-293 cells; expressed in transfected cells; tetracycline induced

[4] = target: T3, CB1 (TRex-CHO cells stably expressing human CB1) (Homo sapiens, UniProt P21554); type: cell-based
T3 construct: pcDNA4/TO native full length human CB1 receptor construct was transfected into tetracycline inducible system Trex-CHO and Trex-293 cells; expressed in transfected cells
Protocol: A cAMP functional assay was performed to measure the antagonism of the antibodies. […] Data analysis was performed using GraphPad Prism.
Cell numbers, forskolin concentration and CP55,940 concentration were optimized according to the manufacturer's instructions. The cAMP antagonist functional assay was performed in white 384-well low volume plates (Greiner). […] Data analysis was performed using GraphPad Prism.
Data analysis was performed using GraphPad Prism. The mean±SD of IC50s and dissociation constants (Kd) shown were measured from at least 2 different experiments.
After 30 minutes incubation at 22° C., 5 μL cAMP-d2 and 5 μL anti-cAMP cryptate were added to the cells and incubated for 1 hour. […] Data analysis was performed using GraphPad Prism.

[5] = tested on: denatured CB1 protein (His tagged, N/C-termini truncated human CB1); test: Western blot recognition of denatured CB1 protein; type: binding; settings: 2 μg/mL
Protocol: A study was performed to examine whether PA13R3-P1C4 and its humanized variant antibodies recognize epitope(s) on denatured CB1 protein (His tagged, N/C-termini truncated CB1) by western blot analysis. Purified human CB1 protein (750 ng per lane) was mixed with SDS reducing buffer containing beta-mercaptoethanol (Double Helix). […] Membranes were blocked with 5% NFDM/PBS-T for one hour at 22° C. followed by immune-blotting with test antibodies (2 μg/mL) in 5% NFDM/PBS-T overnight at 4° C. Commercial mouse anti-His antibody and mouse anti-CB1 antibody (R&D Systems) were used as positive controls, and rabbit anti-CB1 antibody (Cayman), which recognizes a C-terminal region that was deleted from the recombinant CB1 protein used in this study, served as a negative control.
After overnight incubation, membranes were washed with 0.5% Tween-20 PBS (PBS-T) three times at 22° C. Secondary antibodies AP-conjugated anti-human IgG (1:5000) or anti-mouse IgG or anti-rabbit IgG in 5% NFDM/PBS-T were added to respective membranes and incubated for 1 hour at 22° C. Membranes were washed three times with PBS-T each for 5 minutes. After the final wash, signal was developed by incubating with NBT/BCIP substrate solution at 22° C. and the reaction was stopped by washing the membrane under running water.

[6] = target: CB1 receptor (TRex-CHO CB1 cells) (Homo sapiens, UniProt P21554); test: Flow cytometry binding of P1C4 Fab
Protocol: To determine PA13R3-P1C4 Fab binding affinity, full binding curves were generated on CB1 receptor by testing a range of concentrations using TRex-CHO cells stably transfected with tetracycline inducible CB1 expression construct by flow cytometry. Three-fold serial dilutions from 3 μM to 0.1 μM were prepared. FITC-conjugated anti-human antibody was used to detect PA13R3-P1C4 Fab.

T3 sequence (P21554 whole entry): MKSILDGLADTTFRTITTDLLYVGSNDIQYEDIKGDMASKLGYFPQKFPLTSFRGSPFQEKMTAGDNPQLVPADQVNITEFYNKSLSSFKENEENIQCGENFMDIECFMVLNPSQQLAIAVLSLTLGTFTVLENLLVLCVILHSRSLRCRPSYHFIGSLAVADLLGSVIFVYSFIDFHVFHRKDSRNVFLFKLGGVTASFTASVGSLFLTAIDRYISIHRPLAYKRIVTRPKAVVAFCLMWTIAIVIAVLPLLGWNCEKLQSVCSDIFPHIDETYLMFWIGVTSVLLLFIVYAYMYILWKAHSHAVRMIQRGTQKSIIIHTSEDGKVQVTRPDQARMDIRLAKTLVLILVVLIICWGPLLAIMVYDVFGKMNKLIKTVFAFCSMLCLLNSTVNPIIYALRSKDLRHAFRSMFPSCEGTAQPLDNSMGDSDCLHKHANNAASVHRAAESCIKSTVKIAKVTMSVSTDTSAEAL
T1 sequence (P21554 whole entry): as above
T2 sequence (P21554 whole entry): as above
Sequence of CB1 receptor (TRex-CHO CB1 cells) (P21554 whole entry): as above

Row | Molecule | effect on cAMP levels without exogenous agonist / mechanism [1] | block of WIN55,212 induced ERK phosphorylation [2] | inhibition of WIN55,212 induced CB1 receptor internalization [3] | effect on CP55,940-induced reduction in intracellular cAMP levels [4] | IC50 ([4]; all batches, 5 μM forskolin, 9 nM CP55,940, read-out: cAMP IC50 Mean ± SD) [nM] | recognition of denatured CB1 protein [5] | binding to TRex-CHO CB1 cells [6]
1 | 36E12B6C2: hybridoma-derived anti-CB1 mAb; HC variable SEQ ID NO: 18, LC variable SEQ ID NO: 22 (antibody, listed as Mus sp., V domains shown) VH: QVQLQQSGAELVRPGSSVKISCKASGYEFSYYWMNWVKQRPGQGLQWIGQIYPGDGDTNYNGKFKGKATLTADKSSSTAYMHLTSLTSEDSAVYFCARSGGNPFAFWGQGTLVTVSA VL: DIQMTQTSSSLSASLGDRVTFSCRASQDISNYLNWYQQKPDGTVKLLIYYTSRLHSGVTSRFRGSGSGTDYSLTISNLEQEDVATYFCQQGHTLPWSFGGGTKLEIK | inverse agonists | blocked | – | – | – | – | –
2 | PA13R3-P1C4: phage-derived chimeric anti-CB1 IgG; HC variable SEQ ID NO: 2, LC variable SEQ ID NO: 6 (antibody, V domains shown, PA13R3-P1C4 Heavy chain variable region; PA13R3-P1C4 Light chain variable region) VH: EVQLQQSGAELVRPGVSVKISCKASGYEFSYYWMNWVKQRPGQGLEWIGQIYPGDGETKYNGKFKGKATLTADKSSNTAYMQLSSLTSEDSAVYFCARSHGNYLPYWGQGTLVTVSA VL: DIVLTQSPAIMSASLGERVTMTCTASSSVSSSYLHWYQQKPGSSPKLWIYSTSNLASGVPARFSGSGSGTSYSLTISSMEAEDAATYYCHQYHRSPPTFGAGTKLELK | inverse agonists | blocked | inhibited | dose-dependently inhibited | 138 ± 21 | could not recognize denatured and linearized CB1 protein | –
3 | PA13R3-P1C4 Fab: Fab fragment of chimeric PA13R3-P1C4 (antibody, V domains shown) VH: EVQLQQSGAELVRPGVSVKISCKASGYEFSYYWMNWVKQRPGQGLEWIGQIYPGDGETKYNGKFKGKATLTADKSSNTAYMQLSSLTSEDSAVYFCARSHGNYLPYWGQGTLVTVSA VL: DIVLTQSPAIMSASLGERVTMTCTASSSVSSSYLHWYQQKPGSSPKLWIYSTSNLASGVPARFSGSGSGTSYSLTISSMEAEDAATYYCHQYHRSPPTFGAGTKLELK | – | – | – | – | – | – | dose dependently bound
